± gives the uncertainty stated by the source.
Assay: protein stability index of a GFP-peptide fusion (yeast GPS) (PSI 1-4); higher = more stable; sorted into four equal gates, so the index is relative within each strain
How it was run: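 Sequencing reads from sorted gates were used to score each peptide. The library consisted of tiled 17-residue yeast protein peptides fused downstream of GFP on a Cherry-expressing plasmid, pooled and carried in yeast. Mid-log cultures in leucine-free medium were split into four equal gates by GFP/Cherry ratio, and each gate's plasmids were PCR-amplified and Illumina-sequenced. The protein stability index adds up, over all gates, the read frequency multiplied by the gate number.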

Sequence	protein stability index (doa10∆)	protein stability index (pdr5∆)	protein stability index (san1∆)	protein stability index (ubr1∆)
KDGEDIIFNYVPGPGTK [CSL4]	2.56 ± 0.17	2.53 ± 0.11	2.23 ± 0.14	2.52 ± 0.29
VVDPKTSIEKSSEILSY [YML103C/NUP188]	1.49 ± 0.087	1.43 ± 0.13	1.16 ± 0.12	1.12 ± 0.063
FLGEQVNEPTKNEEAEI [RPN1]				3.56 ± 0.26
STTNSDVSLLLQRDLFI [RGR1]	2.76 ± 0.093	3.06 ± 0.1	2.81 ± 0.067	3.02 ± 0.077
DTPTSGKHNLTIWCVCD [BRR2]	3.05 ± 0.11	3.22 ± 0.1	3.14 ± 0.075	3.08 ± 0.082
KDRLYCGKCHSVYKVNA [RPS31]	1.49 ± 0.086	2.26 ± 0.1	1.89 ± 0.14	2.01 ± 0.052
KHWQERVKVHFDQAGKK [RPL13A]	2.31 ± 0.046	2.33 ± 0.047	2.28 ± 0.064	2.35 ± 0.036
FPRSRSRSRSSIRSISP [ESC2]	2.86 ± 0.2	3.18 ± 0.13	3.03 ± 0.09	3.34 ± 0.19
MIQKVMEYLKSSKSLDL [RPN5]	2.6 ± 0.051	1.55 ± 0.039	2.3 ± 0.057	2.46 ± 0.05
SSGDFDDNNNNNNNNNN [GRR1]	3.11 ± 0.06	3.18 ± 0.057	3.22 ± 0.063	3.04 ± 0.046
RRADVKTATVKINKKLN [RPL38]	1.83 ± 0.058	1.84 ± 0.041	2.17 ± 0.086	1.62 ± 0.039
NANRVFRTRFQDGTSVV [SMC2]	2.74 ± 0.16	1.29 ± 0.1	2.31 ± 0.26	2.34 ± 0.085
TASSLAHDYNNDQDMFT [YML103C/NUP188]	3.19 ± 0.067	3.04 ± 0.063	3.17 ± 0.046	3.12 ± 0.055
LSESDKKSKLISLYLLN [RPN12]	2.21 ± 0.17	3 ± 0.1	2.07 ± 0.21	2.31 ± 0.063
GKGHLVGRLASVVAKQL [RPL16A]	1.33 ± 0.057	1.48 ± 0.051	1.33 ± 0.099	1.32 ± 0.05
ATEVTPQEPKHIQEEEE [RPC19]	3.24 ± 0.081	3.23 ± 0.09	3.14 ± 0.056	3.37 ± 0.079
AEDDVIIPQDILDCVVT [YJR042W/NUP85]	3.18 ± 0.1	3.04 ± 0.065	3.36 ± 0.04	2.94 ± 0.07
SPIKNGSCTRQLAGKSG [YOR098C/NUP1]	3.32 ± 0.084	3.02 ± 0.056	2.35 ± 0.07	3.08 ± 0.069
RLEFDQDRDRFFLRDTL [SNF5]	3.07 ± 0.061	3.38 ± 0.065	3.06 ± 0.048	3.4 ± 0.061
TELMNRSPLVTPMDESS [SRP72]	2.52 ± 0.071	2.58 ± 0.07	3.03 ± 0.076	2.59 ± 0.062
LYGLNLTLRKAKAPSGL [FAS1]	2.92 ± 0.089	2.17 ± 0.12	3.53 ± 0.068	2.42 ± 0.15
LNTFHFAGVASKKVTSG [RPO21]	2.67 ± 0.093	3.13 ± 0.078	2.9 ± 0.065	2.9 ± 0.077
YTDRDQDEVNKGPAIDE [NNF1]	2.12 ± 0.092	2.01 ± 0.085	1.89 ± 0.13	2.13 ± 0.14
AKIISKAPEQFIENFLT [YML103C/NUP188]	2.69 ± 0.17	2.94 ± 0.26	2.54 ± 0.2	2.89 ± 0.2
RGNTKIHSMNENPTPEK [SIR3]	3.11 ± 0.085	3.15 ± 0.11	3.08 ± 0.056	3.31 ± 0.067
NSLLSNFNDIPPSVTLQ [YDL088C/ASM4]	2.63 ± 0.081	1.98 ± 0.072	2.04 ± 0.11	2.72 ± 0.11
DANGVSLFELIVPIFQL [YJL039C/NUP192]	2.37 ± 0.053	2.08 ± 0.049	2.25 ± 0.062	2.14 ± 0.032
